Results published in patent publication US20240190920A1 (SHENZHEN RESEARCH INSTITUTE OF THE HONG KONG POLYTECHNIC …, published 2024).
Bridge positions count the residues as written; N and C are the ends. Square brackets hold non-standard residues; d marks the D form. R8 = C=CCCCCCC[C@@](C)(N)C(=O)O; S5 = C=CCCC[C@](C)(N)C(=O)O

B1: i7-01s-57 (Ac-[Tat]-RRIQ(R8)MEDVLK(S5)RKR-NH2) (peptide)
peptide: Ac-YGRKKRRQRRRRRIQ[R8]MEDVLK[S5]RKR-NH2
modifications: staple 16-23
SMILES: CC[C@H](C)[C@H](NC(=O)[C@H](CCCNC(=N)N)NC(=O)[C@H](CCCNC(=N)N)NC(=O)[C@H](CCCNC(=N)N)NC(=O)[C@H](CCCNC(=N)N)NC(=O)[C@H](CCCNC(=N)N)NC(=O)[C@H](CCC(N)=O)NC(=O)[C@H](CCCNC(=N)N)NC(=O)[C@H](CCCNC(=N)N)NC(=O)[C@H](CCCCN)NC(=O)[C@H](CCCCN)NC(=O)[C@H](CCCNC(=N)N)NC(=O)CNC(=O)[C@H](Cc1ccc(O)cc1)NC(C)=O)C(=O)N[C@@H](CCC(N)=O)C(=O)N[C@]1(C)CCCCCCC=CCCC[C@@](C)(C(=O)N[C@@H](CCCNC(=N)N)C(=O)N[C@@H](CCCCN)C(=O)N[C@@H](CCCNC(=N)N)C(N)=O)NC(=O)[C@H](CCCCN)NC(=O)[C@H](CC(C)C)NC(=O)[C@H](C(C)C)NC(=O)[C@H](CC(=O)O)NC(=O)[C@H](CCC(=O)O)NC(=O)[C@H](CCSC)NC1=O
B2: i7-01s-02 (Ac-[Tat]-RLIQ(R8)REDREK(S5)RAV-NH2) (peptide)
peptide: Ac-YGRKKRRQRRRRLIQ[R8]REDREK[S5]RAV-NH2
modifications: staple 16-23
SMILES: CC[C@H](C)[C@H](NC(=O)[C@H](CC(C)C)NC(=O)[C@H](CCCNC(=N)N)NC(=O)[C@H](CCCNC(=N)N)NC(=O)[C@H](CCCNC(=N)N)NC(=O)[C@H](CCCNC(=N)N)NC(=O)[C@H](CCC(N)=O)NC(=O)[C@H](CCCNC(=N)N)NC(=O)[C@H](CCCNC(=N)N)NC(=O)[C@H](CCCCN)NC(=O)[C@H](CCCCN)NC(=O)[C@H](CCCNC(=N)N)NC(=O)CNC(=O)[C@H](Cc1ccc(O)cc1)NC(C)=O)C(=O)N[C@@H](CCC(N)=O)C(=O)N[C@]1(C)CCCCCCC=CCCC[C@@](C)(C(=O)N[C@@H](CCCNC(=N)N)C(=O)N[C@@H](C)C(=O)N[C@H](C(N)=O)C(C)C)NC(=O)[C@H](CCCCN)NC(=O)[C@H](CCC(=O)O)NC(=O)[C@H](CCCNC(=N)N)NC(=O)[C@H](CC(=O)O)NC(=O)[C@H](CCC(=O)O)NC(=O)[C@H](CCCNC(=N)N)NC1=O
B3: i7-01s-75 (Ac-[Tat]-RLIY(R8)MEDVEK(S5)RKR-NH2) (peptide)
peptide: Ac-YGRKKRRQRRRRLIY[R8]MEDVEK[S5]RKR-NH2
modifications: staple 16-23
SMILES: CC[C@H](C)[C@H](NC(=O)[C@H](CC(C)C)NC(=O)[C@H](CCCNC(=N)N)NC(=O)[C@H](CCCNC(=N)N)NC(=O)[C@H](CCCNC(=N)N)NC(=O)[C@H](CCCNC(=N)N)NC(=O)[C@H](CCC(N)=O)NC(=O)[C@H](CCCNC(=N)N)NC(=O)[C@H](CCCNC(=N)N)NC(=O)[C@H](CCCCN)NC(=O)[C@H](CCCCN)NC(=O)[C@H](CCCNC(=N)N)NC(=O)CNC(=O)[C@H](Cc1ccc(O)cc1)NC(C)=O)C(=O)N[C@@H](Cc1ccc(O)cc1)C(=O)N[C@]1(C)CCCCCCC=CCCC[C@@](C)(C(=O)N[C@@H](CCCNC(=N)N)C(=O)N[C@@H](CCCCN)C(=O)N[C@@H](CCCNC(=N)N)C(N)=O)NC(=O)[C@H](CCCCN)NC(=O)[C@H](CCC(=O)O)NC(=O)[C@H](C(C)C)NC(=O)[C@H](CC(=O)O)NC(=O)[C@H](CCC(=O)O)NC(=O)[C@H](CCSC)NC1=O
B4: i7-01s-10 (Ac-[Tat]-RLIQ(R8)REDREK(S5)RAR-NH2) (peptide)
peptide: Ac-YGRKKRRQRRRRLIQ[R8]REDREK[S5]RAR-NH2
modifications: staple 16-23
SMILES: CC[C@H](C)[C@H](NC(=O)[C@H](CC(C)C)NC(=O)[C@H](CCCNC(=N)N)NC(=O)[C@H](CCCNC(=N)N)NC(=O)[C@H](CCCNC(=N)N)NC(=O)[C@H](CCCNC(=N)N)NC(=O)[C@H](CCC(N)=O)NC(=O)[C@H](CCCNC(=N)N)NC(=O)[C@H](CCCNC(=N)N)NC(=O)[C@H](CCCCN)NC(=O)[C@H](CCCCN)NC(=O)[C@H](CCCNC(=N)N)NC(=O)CNC(=O)[C@H](Cc1ccc(O)cc1)NC(C)=O)C(=O)N[C@@H](CCC(N)=O)C(=O)N[C@]1(C)CCCCCCC=CCCC[C@@](C)(C(=O)N[C@@H](CCCNC(=N)N)C(=O)N[C@@H](C)C(=O)N[C@@H](CCCNC(=N)N)C(N)=O)NC(=O)[C@H](CCCCN)NC(=O)[C@H](CCC(=O)O)NC(=O)[C@H](CCCNC(=N)N)NC(=O)[C@H](CC(=O)O)NC(=O)[C@H](CCC(=O)O)NC(=O)[C@H](CCCNC(=N)N)NC1=O
B5: i7-01s-45 (Ac-[Tat]-RLKQ(R8)LEDVEK(S5)RKR-NH2) (peptide)
peptide: Ac-YGRKKRRQRRRRLKQ[R8]LEDVEK[S5]RKR-NH2
modifications: staple 16-23
SMILES: CC(=O)N[C@@H](Cc1ccc(O)cc1)C(=O)NCC(=O)N[C@@H](CCCNC(=N)N)C(=O)N[C@@H](CCCCN)C(=O)N[C@@H](CCCCN)C(=O)N[C@@H](CCCNC(=N)N)C(=O)N[C@@H](CCCNC(=N)N)C(=O)N[C@@H](CCC(N)=O)C(=O)N[C@@H](CCCNC(=N)N)C(=O)N[C@@H](CCCNC(=N)N)C(=O)N[C@@H](CCCNC(=N)N)C(=O)N[C@@H](CCCNC(=N)N)C(=O)N[C@@H](CC(C)C)C(=O)N[C@@H](CCCCN)C(=O)N[C@@H](CCC(N)=O)C(=O)N[C@]1(C)CCCCCCC=CCCC[C@@](C)(C(=O)N[C@@H](CCCNC(=N)N)C(=O)N[C@@H](CCCCN)C(=O)N[C@@H](CCCNC(=N)N)C(N)=O)NC(=O)[C@H](CCCCN)NC(=O)[C@H](CCC(=O)O)NC(=O)[C@H](C(C)C)NC(=O)[C@H](CC(=O)O)NC(=O)[C@H](CCC(=O)O)NC(=O)[C@H](CC(C)C)NC1=O
B6: i7-01s-70 (Ac-[Tat]-RLIQ(R8)KGDVEL(S5)RKR-NH2) (peptide)
peptide: Ac-YGRKKRRQRRRRLIQ[R8]KGDVEL[S5]RKR-NH2
modifications: staple 16-23
SMILES: CC[C@H](C)[C@H](NC(=O)[C@H](CC(C)C)NC(=O)[C@H](CCCNC(=N)N)NC(=O)[C@H](CCCNC(=N)N)NC(=O)[C@H](CCCNC(=N)N)NC(=O)[C@H](CCCNC(=N)N)NC(=O)[C@H](CCC(N)=O)NC(=O)[C@H](CCCNC(=N)N)NC(=O)[C@H](CCCNC(=N)N)NC(=O)[C@H](CCCCN)NC(=O)[C@H](CCCCN)NC(=O)[C@H](CCCNC(=N)N)NC(=O)CNC(=O)[C@H](Cc1ccc(O)cc1)NC(C)=O)C(=O)N[C@@H](CCC(N)=O)C(=O)N[C@]1(C)CCCCCCC=CCCC[C@@](C)(C(=O)N[C@@H](CCCNC(=N)N)C(=O)N[C@@H](CCCCN)C(=O)N[C@@H](CCCNC(=N)N)C(N)=O)NC(=O)[C@H](CC(C)C)NC(=O)[C@H](CCC(=O)O)NC(=O)[C@H](C(C)C)NC(=O)[C@H](CC(=O)O)NC(=O)CNC(=O)[C@H](CCCCN)NC1=O
B7: i7-01s-64 (Ac-[Tat]-RLII(R8)QEDVEK(S5)RKR-NH2) (peptide)
peptide: Ac-YGRKKRRQRRRRLII[R8]QEDVEK[S5]RKR-NH2
modifications: staple 16-23
SMILES: CC[C@H](C)[C@H](NC(=O)[C@H](CC(C)C)NC(=O)[C@H](CCCNC(=N)N)NC(=O)[C@H](CCCNC(=N)N)NC(=O)[C@H](CCCNC(=N)N)NC(=O)[C@H](CCCNC(=N)N)NC(=O)[C@H](CCC(N)=O)NC(=O)[C@H](CCCNC(=N)N)NC(=O)[C@H](CCCNC(=N)N)NC(=O)[C@H](CCCCN)NC(=O)[C@H](CCCCN)NC(=O)[C@H](CCCNC(=N)N)NC(=O)CNC(=O)[C@H](Cc1ccc(O)cc1)NC(C)=O)C(=O)N[C@H](C(=O)N[C@]1(C)CCCCCCC=CCCC[C@@](C)(C(=O)N[C@@H](CCCNC(=N)N)C(=O)N[C@@H](CCCCN)C(=O)N[C@@H](CCCNC(=N)N)C(N)=O)NC(=O)[C@H](CCCCN)NC(=O)[C@H](CCC(=O)O)NC(=O)[C@H](C(C)C)NC(=O)[C@H](CC(=O)O)NC(=O)[C@H](CCC(=O)O)NC(=O)[C@H](CCC(N)=O)NC1=O)[C@@H](C)CC
B8: i7-01s-37 (Ac-[Tat]-RLIQ(R8)KEDVEK(S5)RKR-NH2) (peptide)
peptide: Ac-YGRKKRRQRRRRLIQ[R8]KEDVEK[S5]RKR-NH2
modifications: staple 16-23
SMILES: CC[C@H](C)[C@H](NC(=O)[C@H](CC(C)C)NC(=O)[C@H](CCCNC(=N)N)NC(=O)[C@H](CCCNC(=N)N)NC(=O)[C@H](CCCNC(=N)N)NC(=O)[C@H](CCCNC(=N)N)NC(=O)[C@H](CCC(N)=O)NC(=O)[C@H](CCCNC(=N)N)NC(=O)[C@H](CCCNC(=N)N)NC(=O)[C@H](CCCCN)NC(=O)[C@H](CCCCN)NC(=O)[C@H](CCCNC(=N)N)NC(=O)CNC(=O)[C@H](Cc1ccc(O)cc1)NC(C)=O)C(=O)N[C@@H](CCC(N)=O)C(=O)N[C@]1(C)CCCCCCC=CCCC[C@@](C)(C(=O)N[C@@H](CCCNC(=N)N)C(=O)N[C@@H](CCCCN)C(=O)N[C@@H](CCCNC(=N)N)C(N)=O)NC(=O)[C@H](CCCCN)NC(=O)[C@H](CCC(=O)O)NC(=O)[C@H](C(C)C)NC(=O)[C@H](CC(=O)O)NC(=O)[C@H](CCC(=O)O)NC(=O)[C@H](CCCCN)NC1=O
B9: i7-01s-58 (Ac-[Tat]-RLIE(R8)REIVEK(S5)RKR-NH2) (peptide)
peptide: Ac-YGRKKRRQRRRRLIE[R8]REIVEK[S5]RKR-NH2
modifications: staple 16-23
SMILES: CC[C@H](C)[C@H](NC(=O)[C@H](CC(C)C)NC(=O)[C@H](CCCNC(=N)N)NC(=O)[C@H](CCCNC(=N)N)NC(=O)[C@H](CCCNC(=N)N)NC(=O)[C@H](CCCNC(=N)N)NC(=O)[C@H](CCC(N)=O)NC(=O)[C@H](CCCNC(=N)N)NC(=O)[C@H](CCCNC(=N)N)NC(=O)[C@H](CCCCN)NC(=O)[C@H](CCCCN)NC(=O)[C@H](CCCNC(=N)N)NC(=O)CNC(=O)[C@H](Cc1ccc(O)cc1)NC(C)=O)C(=O)N[C@@H](CCC(=O)O)C(=O)N[C@]1(C)CCCCCCC=CCCC[C@@](C)(C(=O)N[C@@H](CCCNC(=N)N)C(=O)N[C@@H](CCCCN)C(=O)N[C@@H](CCCNC(=N)N)C(N)=O)NC(=O)[C@H](CCCCN)NC(=O)[C@H](CCC(=O)O)NC(=O)[C@H](C(C)C)NC(=O)[C@H]([C@@H](C)CC)NC(=O)[C@H](CCC(=O)O)NC(=O)[C@H](CCCNC(=N)N)NC1=O

Target: T1, Beclin 1 coiled coil domain (human Beclin 1, residues 176-268) (human, UniProt Q14457 176-268)
T1 construct: range 176-268; also called Beclin 1 coiled coil domain protein
T1 sequence (Q14457 176-268 limits assumed): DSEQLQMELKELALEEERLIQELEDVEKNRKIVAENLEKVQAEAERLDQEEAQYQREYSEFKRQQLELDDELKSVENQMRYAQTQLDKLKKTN
Assay: ITC, peptide titrated into Beclin 1 coiled coil domain, 25 C, one-site model

Binder	Kd
B1	2.2 µM
B2	0.86 µM
B3	1.29 µM
B4	2.03 µM
B5	1.41 µM
B6	2.14 µM
B7	356 µM
B8	2.41 µM
B9	0.61 µM
Ac-YGRKKRRQRRRRLISEL[R8]DREKQR[S5]A-NH2 (staple 18-25) [Tat-SP4 (Ac-[Tat]-RLISEL(R8)DREKQR(S5)A-NH2)]	3.21 µM
